B1: Bim_Her2 (Her2 DARPin tagged with N-terminal Bim peptide) (designed binder)
chain: MGSHHHHHHGSGSENLYFQGSTDEIWIAQELRRIGDEFNAYYASGSGDLGKKLLEAARAGQDDEVRILMANGADVNAKDEYGLTPLYLATAHGHLEIVEVLLKNGADVNAVDAIGFTPLHLAAFIGHLEIAEVLLKHGADVNAQDKFGKTAFDISIGNGNEDLAEILQKLN
notes: also called Anti-Her2 DARPin with N-terminal fusion to Bim; Bim-DARPin
B2: Bim_EGFR (EGFR DARPin tagged with N-terminal Bim peptide) (designed binder)
chain: MGSHHHHHHGSGSENLYFQGSTDEIWIAQELRRIGDEFNAYYASGSGDLGKKLLEAARAGQDDEVRILMANGADVNADDTWGWTPLHLAAYQGHLEIVEVLLKNGADVNAYDYIGWTPLHLAADGHLEIVEVLLKNGADVNASDYIGDTPLHLAAHNGHLEIVEVLLKHGADVNAQDKFGKTAFDISIDNGNEDLAEILQKLN
notes: also called anti-EGFR DARPin with N-terminal fusion to Bim; Bim-DARPin

Assays:
[1] = target: T1, Her2-eGFP (hsHER2_ecd_tm-eGFP) (human (hs)); test: flow cytometry; Bim-DARPin pre-complexed with Bcl2-AF594, 3-fold dilutions from 300 nM to 0.4 nM, mixed K562 cells expressing Her2-eGFP, EGFR-iRFP, both or neither
T1 construct: Expressed on K562 cells by lentiviral transduction; also called Her2-eGFP on K562 cells
Method: (§1) FIG. 16. DARPin binder affinity measured by flow cytometry. Anti-Her2 or anti-EGFR DARPins with N-terminal fusions to Bim were pre-complexed with Bcl2-AF594 and serially diluted 3-fold from 300 nM down to 0.4 nM. This dilution series was used to label a mixed population of K562 cells expressing Her2-eGFP, EGFR-iRFP, both, or neither for one hour at room temperature in a 50 μl incubation volume. The cells were then washed in PBS supplemented with 0.1% bovine serum albumin and analyzed on an LSRII flow cytometer.

[2] = target: T2, EGFR-iRFP (hsEGFR_ecd_tm-iRFP) (human (hs)); test: as above
T2 construct: Expressed on K562 cells by lentiviral transduction; also called EGFR-iRFP on K562 cells
Method: as §1

T2 sequence (chain, as listed by the source limits assumed): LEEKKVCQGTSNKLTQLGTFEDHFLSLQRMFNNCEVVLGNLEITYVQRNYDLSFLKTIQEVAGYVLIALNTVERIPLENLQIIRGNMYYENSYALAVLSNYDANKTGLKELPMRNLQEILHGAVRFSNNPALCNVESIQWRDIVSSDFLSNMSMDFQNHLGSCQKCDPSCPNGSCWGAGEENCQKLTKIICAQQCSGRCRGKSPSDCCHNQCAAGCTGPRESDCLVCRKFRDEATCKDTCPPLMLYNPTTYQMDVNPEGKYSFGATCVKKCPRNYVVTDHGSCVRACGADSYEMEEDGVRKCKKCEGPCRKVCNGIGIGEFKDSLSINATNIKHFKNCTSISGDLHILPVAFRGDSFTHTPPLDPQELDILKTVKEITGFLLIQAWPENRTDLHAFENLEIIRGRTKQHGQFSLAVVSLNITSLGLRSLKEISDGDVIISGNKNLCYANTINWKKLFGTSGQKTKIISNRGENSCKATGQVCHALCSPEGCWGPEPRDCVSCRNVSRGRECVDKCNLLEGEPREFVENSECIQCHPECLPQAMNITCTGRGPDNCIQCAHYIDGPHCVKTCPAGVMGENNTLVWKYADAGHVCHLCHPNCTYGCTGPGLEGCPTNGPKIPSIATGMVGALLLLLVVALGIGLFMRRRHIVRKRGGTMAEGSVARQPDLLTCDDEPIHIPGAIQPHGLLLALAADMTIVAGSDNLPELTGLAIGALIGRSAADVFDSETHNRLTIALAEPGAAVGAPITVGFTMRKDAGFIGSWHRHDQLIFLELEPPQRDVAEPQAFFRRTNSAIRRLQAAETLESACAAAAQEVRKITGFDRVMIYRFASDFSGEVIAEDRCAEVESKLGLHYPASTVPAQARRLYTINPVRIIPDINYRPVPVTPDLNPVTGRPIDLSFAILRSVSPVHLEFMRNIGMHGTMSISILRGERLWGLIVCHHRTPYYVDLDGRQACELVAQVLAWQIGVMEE

Binder | Kd [1] [nM] | Kd [2] [nM]
B1 | ~10 | 
B2 |  | ~10
